{"source": "paper PMC10878525", "key": {"[1]": {"target": "chicken sodium hydrogen exchanger isoform 1 (chNHE1), expressed on 293T cells (pCAF-chNHE1) (chicken)", "test": "virus-cell binding assay read by RT-qPCR; 293T cells transfected with pCAF-chNHE1, exposed to rescued virus at MOI 50 for 1 h at 4 °C, washed five times; gp85 gene RT-qPCR against human GAPDH"}, "[2]": {"target": "chicken sodium hydrogen exchanger isoform 1 (chNHE1), expressed on 293T cells (pCAF-chNHE1) (chicken)", "test": "flow cytometry on cells; virus-cell binding: 293T cells transfected with pCAF-chNHE1 incubated with 50 MOI rescued virus 1 h on ice; stained with 4A3 anti-gp85 and FITC secondary, anti-FLAG co-staining"}, "[3]": {"target": "chicken sodium hydrogen exchanger isoform 1 (chNHE1), expressed on 293T cells (pCAF-chNHE1) (chicken)", "test": "flow cytometry on cells"}, "[4]": {"target": "soluble chECL1 protein (chicken)", "test": "SPR; Biacore 8K; chECL1 immobilised on a CM5 chip to about 100 RU; serial dilutions of gp85 flowed; 10 mM HEPES pH 7.2, 150 mM NaCl, 0.05% Tween-20; 1:1 binding model"}, "[5]": {"target": "chECL1, first extracellular loop of chNHE1, with a C-terminal HA tag (chicken)", "test": "co-IP"}, "[6]": {"target": "soluble chECL1 protein (chicken)", "test": "SPR; Biacore 8K; chECL1 immobilised on a CM5 chip to about 100 RU; serial dilutions of gp85 flowed; 10 mM HEPES pH 7.2, 150 mM NaCl, 0.05% Tween-20; 1:1 binding model", "remark": "listed apart in the source"}, "[7]": {"target": "chicken sodium hydrogen exchanger isoform 1 (chNHE1), expressed on 293T cells (pCAF-chNHE1) (chicken)", "test": "flow cytometry on cells; protein-cell binding assay: purified gp85-Fc (0.5 mL of 200 ng/uL; 300, 200 and 50 ng/uL in Fig 2A) incubated 1 h on ice with 293T cells transfected with pCAF-chNHE1; anti-human IgG (Fc specific)-FITC, anti-FLAG co-staining"}, "[8]": {"target": "chECL1, first extracellular loop of chNHE1, with a C-terminal HA tag (chicken)", "test": "co-IP; 293T cells co-transfected with chECL1 (HA) and pCAF-gp85 plasmids for 48 h; lysates on anti-HA-agarose; blot with 4A3 and anti-HA; gp85 intensities normalised to input"}}, "note": "Like-named read-outs stand apart in the source and are kept apart here."}
{"substance": "Env of the recombinant virus rHPRS103-N123I (N123I in gp85), on virions (complex)", "values": [{"measurement": "fold binding capacity against rHPRS103 (RT-qPCR)", "setting": "[1]", "value": 7.14, "unit": "fold"}, {"measurement": "fold binding capacity against rHPRS103 (FACS)", "setting": "[2]", "value": 1.27, "unit": "fold"}]}
{"substance": "Env of the recombinant virus rHPRS/JL3-1 (gp85 of JL08CH3-1 on the HPRS103 backbone), on virions (complex)", "values": [{"measurement": "fold binding capacity against rHPRS103 (RT-qPCR)", "setting": "[1]", "value": 7.96, "unit": "fold"}, {"measurement": "fold binding capacity against rHPRS103 (FACS)", "setting": "[2]", "value": 1.29, "unit": "fold"}]}
{"substance": "JL08CH3-1-gp85 (CAG-JL3-1-gp85-Fc) (Fc fusion)", "values": [{"measurement": "binding rate at 50 ng/μL", "setting": "[3]", "value": 58.5, "unit": "%"}, {"measurement": "binding rate at 200 ng/μL", "setting": "[3]", "value": 85, "unit": "%"}, {"measurement": "binding rate at 300 ng/μL", "setting": "[3]", "value": 87.9, "unit": "%"}, {"measurement": "Kd", "setting": "[4]", "value": 109, "unit": "nM"}]}
{"substance": "JL08CH3-1-gp85 (pCAF-JL3-1-gp85) (natural protein)", "values": [{"measurement": "fold binding capacity against HPRS103-gp85", "setting": "[5]", "value": 1.3, "unit": "fold"}]}
{"substance": "N123I-gp85 (CAG-N123I-gp85-Fc) (Fc fusion)", "values": [{"measurement": "Kd", "setting": "[6]", "value": 135, "unit": "nM"}, {"measurement": "fold binding capacity against HPRS103-gp85", "setting": "[7]", "value": 1.3, "unit": "times"}]}
{"substance": "N123I-gp85 (pCAF-N123I-gp85) (natural protein)", "values": [{"measurement": "fold binding against HPRS103-gp85", "setting": "[8]", "value": 1.6, "unit": "fold"}]}
{"substance": "N123I/V128F mutant gp85 (on CAG-sgp85-Fc backbone) (Fc fusion)", "values": [{"measurement": "fold binding capacity against HPRS103-gp85", "setting": "[7]", "value": 1.3, "unit": "times"}]}
{"substance": "soluble HPRS103-gp85 (CAG-sgp85-Fc) (Fc fusion)", "values": [{"measurement": "binding rate at 50 ng/μL", "setting": "[3]", "value": 9.7, "unit": "%"}, {"measurement": "binding rate at 200 ng/μL", "setting": "[3]", "value": 59.2, "unit": "%"}, {"measurement": "binding rate at 300 ng/μL", "setting": "[3]", "value": 70, "unit": "%"}, {"measurement": "Kd", "setting": "[6]", "value": 547, "unit": "nM"}, {"measurement": "Kd", "setting": "[4]", "value": 584, "unit": "nM"}]}
